Measured values as given in patent publication US20240400654A1.
Where a chain is given by its changes, count along the chain named. Names may count otherwise. “And” between values parts separate entries of the source, which are not always exact repeats. Identical values can stand only once.

Target: HRgpA-6H (Porphyromonas gingivalis) (UniProt P28784)
Experiment: ELISA, coated HRgpA-6H

Chain of UniProt P28784 (P28784 228-860 limits assumed): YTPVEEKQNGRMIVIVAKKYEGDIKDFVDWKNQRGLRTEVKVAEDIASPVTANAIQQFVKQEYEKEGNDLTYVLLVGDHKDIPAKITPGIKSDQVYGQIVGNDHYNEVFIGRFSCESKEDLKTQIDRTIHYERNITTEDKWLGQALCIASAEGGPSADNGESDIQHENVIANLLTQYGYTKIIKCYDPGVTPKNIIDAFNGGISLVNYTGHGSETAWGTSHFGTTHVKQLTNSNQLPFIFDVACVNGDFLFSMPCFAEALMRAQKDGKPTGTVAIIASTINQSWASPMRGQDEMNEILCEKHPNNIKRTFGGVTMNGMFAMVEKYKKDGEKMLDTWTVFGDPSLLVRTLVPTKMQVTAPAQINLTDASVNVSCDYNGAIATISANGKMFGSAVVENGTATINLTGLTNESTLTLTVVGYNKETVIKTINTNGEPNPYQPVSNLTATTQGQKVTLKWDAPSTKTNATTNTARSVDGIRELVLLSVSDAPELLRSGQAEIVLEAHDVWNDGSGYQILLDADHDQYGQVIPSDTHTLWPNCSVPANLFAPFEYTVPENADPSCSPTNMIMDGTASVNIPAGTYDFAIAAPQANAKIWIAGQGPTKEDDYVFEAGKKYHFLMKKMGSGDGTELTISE

B1: KB001 mouse Fab VL Y97E (Fab, V domains shown)
VH: EVQLKQSGPGLVAPSQSLSITCTVSGFSLSIYSVHWVRQPPGKGLEWLGMIWGGGSSDYNSALKSRLSISKDNSKSQVFLKMNSLQTDDTAMYYCARNGNFYAMDYWGQGTSVTVSS
VL: QIVLTQSPAIMSASLGERVTMTCTASSSVSSSFLHWYQQKPGSSPQLWIYSTSNLASGVPARFSGSGSGTSYSLTISSMEAEDAATYYCHQYHHSPEIYTFGGGTKLEIK
Binder B1 has an OD450 nm of 0.793 and a Ratio OD(Variant)/OD(WT) of 1.

B2: KB001 mouse Fab VL S28H (Fab, V domains shown)
VH: B1 VH
VL: B1 VL with S28H, E97Y
B2 gave an OD450 nm of 0.719 and a Ratio OD(Variant)/OD(WT) of 0.958.

B3: KB001 mouse Fab VL S27V (Fab, V domains shown)
VH: B1 VH
VL: B1 VL with S27V, E97Y
B3 was tested, and the OD450 nm was 0.645 and 0.646 and the Ratio OD(Variant)/OD(WT) was 0.859 and 0.861.

B4: KB001 mouse Fab VL S27W (Fab, V domains shown)
VH: B1 VH
VL: B1 VL with S27W, E97Y
Work on B4 yielded an OD450 nm of 0.601 and a Ratio OD(Variant)/OD(WT) of 0.801.

B5: KB001 mouse Fab VL S27Y (Fab, V domains shown)
VH: B1 VH
VL: B1 VL with S27Y, E97Y
Work on B5 yielded an OD450 nm of 0.617 and a Ratio OD(Variant)/OD(WT) of 0.822.

B6: KB001 mouse Fab VL A25P (Fab, V domains shown)
VH: B1 VH
VL: B1 VL with A25P, E97Y
In the case of B6, the OD450 nm is reported as 0.742 and 0.766 and 0.749 and the Ratio OD(Variant)/OD(WT) is reported as 0.948 and 0.978 and 0.957.

B7: KB001 mouse Fab VL T100L (Fab, V domains shown)
VH: B1 VH
VL: B1 VL with E97Y, T100L
In the case of B7, the OD450 nm is reported as 0.587 and 0.566 and the Ratio OD(Variant)/OD(WT) is reported as 1.12 and 1.08.

B8: KB001 mouse Fab VL T100W (Fab, V domains shown)
VH: B1 VH
VL: B1 VL with E97Y, T100W
B8 showed an OD450 nm of 0.585 and a Ratio OD(Variant)/OD(WT) of 1.12.

B9: KB001 mouse Fab VL T24I (Fab, V domains shown)
VH: B1 VH
VL: B1 VL with T24I, E97Y
Work on B9 yielded an OD450 nm of 0.741 and a Ratio OD(Variant)/OD(WT) of 0.964.

B10: KB001 mouse Fab VL S28N (Fab, V domains shown)
VH: B1 VH
VL: B1 VL with S28N, E97Y
With B10 the OD450 nm was 0.743 and the Ratio OD(Variant)/OD(WT) was 0.99.

B11: KB001 mouse Fab VL S26T (Fab, V domains shown)
VH: B1 VH
VL: B1 VL with S26T, E97Y
Binder B11 has an OD450 nm of 0.761 and a Ratio OD(Variant)/OD(WT) of 0.972.

B12: KB001 mouse Fab VL S28D (Fab, V domains shown)
VH: B1 VH
VL: B1 VL with S28D, E97Y
B12 was tested, and the OD450 nm was 0.745 and 0.722 and the Ratio OD(Variant)/OD(WT) was 0.993 and 0.962.

B13: KB001 mouse Fab VL S27H (Fab, V domains shown)
VH: B1 VH
VL: B1 VL with S27H, E97Y
In the case of B13, the OD450 nm is reported as 0.664 and 0.63 and 0.726 and the Ratio OD(Variant)/OD(WT) is reported as 0.885 and 0.839 and 0.967.

B14: KB001 mouse Fab VL T24M (Fab, V domains shown)
VH: B1 VH
VL: B1 VL with T24M, E97Y
In the case of B14, the OD450 nm is reported as 0.75 and 0.797 and the Ratio OD(Variant)/OD(WT) is reported as 0.975 and 1.04.

B15: KB001 mouse Fab VL S27K/S68Y (Fab, V domains shown)
VH: B1 VH
VL: B1 VL with S27K, S68Y, E97Y
B15 showed an OD450 nm of 0.736 and a Ratio OD(Variant)/OD(WT) of 0.981.

B16: KB001 mouse Fab VL T24N/G67D (Fab, V domains shown)
VH: B1 VH
VL: B1 VL with T24N, G67D, E97Y
B16 showed an OD450 nm of 0.755 and a Ratio OD(Variant)/OD(WT) of 0.982.

B17: KB001 mouse Fab VL T100H (Fab, V domains shown)
VH: B1 VH
VL: B1 VL with E97Y, T100H
In the case of B17, the OD450 nm is reported as 0.597 and 0.631 and the Ratio OD(Variant)/OD(WT) is reported as 1.14 and 1.21.

B18: KB001 mouse Fab VL T24K/R18S (Fab, V domains shown)
VH: B1 VH
VL: B1 VL with R18S, T24K, E97Y
Binder B18 has an OD450 nm of 0.761 and a Ratio OD(Variant)/OD(WT) of 0.99.

B19: KB001 mouse Fab VL T24L (Fab, V domains shown)
VH: B1 VH
VL: B1 VL with T24L, E97Y
In the case of B19, the OD450 nm is reported as 0.753 and 0.752 and 0.667 and the Ratio OD(Variant)/OD(WT) is reported as 0.979 and 0.978 and 0.867.

B20: KB001 mouse Fab VL T24Q (Fab, V domains shown)
VH: B1 VH
VL: B1 VL with T24Q, E97Y
Binder B20 has an OD450 nm of 0.765 and a Ratio OD(Variant)/OD(WT) of 0.995.

B21: KB001 mouse Fab VL T24N (Fab, V domains shown)
VH: B1 VH
VL: B1 VL with T24N, E97Y
B21 was tested, and the OD450 nm was 0.715 and 0.8 and the Ratio OD(Variant)/OD(WT) was 0.93 and 1.04.

B22: KB001 mouse Fab VL T100G (Fab, V domains shown)
VH: B1 VH
VL: B1 VL with E97Y, T100G
For B22, the OD450 nm was 0.603 and 0.597 and the Ratio OD(Variant)/OD(WT) was 1.15 and 1.14.

B23: KB001 mouse Fab VL S27N (Fab, V domains shown)
VH: B1 VH
VL: B1 VL with S27N, E97Y
B23 was tested, and the OD450 nm was 0.675 and 0.724 and 0.64 and the Ratio OD(Variant)/OD(WT) was 0.899 and 0.965 and 0.853.

B24: KB001 mouse Fab VL A25V (Fab, V domains shown)
VH: B1 VH
VL: B1 VL with A25V, E97Y
B24 gave an OD450 nm of 0.768 and a Ratio OD(Variant)/OD(WT) of 0.981.

B25: KB001 mouse Fab VL S28T/S12R (Fab, V domains shown)
VH: B1 VH
VL: B1 VL with S12R, S28T, E97Y
With B25 the OD450 nm was 0.747 and the Ratio OD(Variant)/OD(WT) was 0.995.

B26: KB001 mouse Fab VL S26P (Fab, V domains shown)
VH: B1 VH
VL: B1 VL with S26P, E97Y
B26 was tested, and the OD450 nm was 0.644 and 0.677 and the Ratio OD(Variant)/OD(WT) was 0.822 and 0.865.

B27: KB001 mouse Fab VL T100S (Fab, V domains shown)
VH: B1 VH
VL: B1 VL with E97Y, T100S
For B27, the OD450 nm was 0.602 and 0.664 and 0.625 and the Ratio OD(Variant)/OD(WT) was 1.15 and 1.27 and 1.19.

B28: KB001 mouse Fab VL S28M (Fab, V domains shown)
VH: B1 VH
VL: B1 VL with S28M, E97Y
For B28, the OD450 nm was 0.706 and 0.675 and the Ratio OD(Variant)/OD(WT) was 0.941 and 0.899.

B29: KB001 mouse Fab VL S27M (Fab, V domains shown)
VH: B1 VH
VL: B1 VL with S27M, E97Y
Work on B29 yielded an OD450 nm of 0.709 and a Ratio OD(Variant)/OD(WT) of 0.945.

B30: KB001 mouse Fab VL T100M (Fab, V domains shown)
VH: B1 VH
VL: B1 VL with E97Y, T100M
Work on B30 yielded an OD450 nm of 0.589 and a Ratio OD(Variant)/OD(WT) of 1.12.

B31: KB001 mouse Fab VL A25Y (Fab, V domains shown)
VH: B1 VH
VL: B1 VL with A25Y, E97Y
With B31 the OD450 nm was 0.755 and 0.757 and the Ratio OD(Variant)/OD(WT) was 0.964 and 0.967.

B32: KB001 mouse Fab VL T100E (Fab, V domains shown)
VH: B1 VH
VL: B1 VL with E97Y, T100E
With B32 the OD450 nm was 0.613 and 0.621 and 0.674 and the Ratio OD(Variant)/OD(WT) was 1.17 and 1.19 and 1.29.

B33: KB001 mouse Fab VL A25G (Fab, V domains shown)
VH: B1 VH
VL: B1 VL with A25G, E97Y
In the case of B33, the OD450 nm is reported as 0.668 and 0.699 and 0.673 and the Ratio OD(Variant)/OD(WT) is reported as 0.853 and 0.893 and 0.86.

B34: KB001 mouse Fab VL T24A (Fab, V domains shown)
VH: B1 VH
VL: B1 VL with T24A, E97Y
With B34 the OD450 nm was 0.757 and the Ratio OD(Variant)/OD(WT) was 0.984.

B35: KB001 mouse Fab VL T100R (Fab, V domains shown)
VH: B1 VH
VL: B1 VL with E97Y, T100R
B35 gave an OD450 nm of 0.616 and a Ratio OD(Variant)/OD(WT) of 1.18.

B36: KB001 mouse Fab VL T100Q (Fab, V domains shown)
VH: B1 VH
VL: B1 VL with E97Y, T100Q
In the case of B36, the OD450 nm is reported as 0.586 and 0.596 and 0.604 and the Ratio OD(Variant)/OD(WT) is reported as 1.12 and 1.14 and 1.15.

B37: KB001 mouse Fab VL S27L (Fab, V domains shown)
VH: B1 VH
VL: B1 VL with S27L, E97Y
With B37 the OD450 nm was 0.649 and the Ratio OD(Variant)/OD(WT) was 0.865.

B38: KB001 mouse Fab VL T100F (Fab, V domains shown)
VH: B1 VH
VL: B1 VL with E97Y, T100F
B38 gave an OD450 nm of 0.552 and a Ratio OD(Variant)/OD(WT) of 1.05.

B39: KB001 mouse Fab VL S26G (Fab, V domains shown)
VH: B1 VH
VL: B1 VL with S26G, E97Y
B39 showed an OD450 nm of 0.73 and a Ratio OD(Variant)/OD(WT) of 0.932.

B40: KB001 mouse Fab VL A25E (Fab, V domains shown)
VH: B1 VH
VL: B1 VL with A25E, E97Y
With B40 the OD450 nm was 0.655 and the Ratio OD(Variant)/OD(WT) was 0.837.

B41: KB001 mouse Fab VL T100Y (Fab, V domains shown)
VH: B1 VH
VL: B1 VL with E97Y, T100Y
Binder B41 has an OD450 nm of 0.546 and a Ratio OD(Variant)/OD(WT) of 1.04.

B42: KB001 mouse Fab VL T24G (Fab, V domains shown)
VH: B1 VH
VL: B1 VL with T24G, E97Y
For B42, the OD450 nm was 0.686 and 0.735 and the Ratio OD(Variant)/OD(WT) was 0.892 and 0.956.
